Laboratory results published in patent US20180172683A1 (published 2018).
Ends that are not written are not given here. * marks the point of attachment. Ser‑Gly linker = flexible serine-glycine linker, six amino acids long; Biotin = O=C1N[C@H]2[C@H](CS[C@H]2CCCCC(=O)*)N1

B1: B-cell lymphoma extra-large protein (Bcl-xL), first 209 amino acids with N-terminal avitag (other)
chain: AGGLNDIFEAQKIEWHEGGMSQSNRELVVDFLSYKLSQKGYSWSQFSDVEENRTEAPEGTESEMETPSAINGNPSWHLADSPAVNGATGHSSSLDAREVIPMAAVKQALREAGDEFELRYRRAFSDLTSQLHITPGTAYQSFEQVVNELFRDGVNWGRIVAFFSFGGALCVESVDKEMQVLVSRIAAWMATYLNDHLEPWIQENGGWDTFVELYGNNAAAESRKGQER
modifications: biotin on the avitag (BirA biotin ligase); a non-biotinylated form was used as the excess competitor in solution in the off-rate assays
notes: range 1-209; Expressed in E. coli BL21(DE3); Used in solution (forward assays) or immobilized through biotin on streptavidin plates or beads (reverse assay, off-rate and HTSK experiments); not shown: His tag implied (pET24a NdeI/XhoI, Ni-NTA purification, anti-HIS probe)

Key:
[1] = biological target: T1, Bim peptide (synthetic 26-residue fragment of Bim, biotin-labeled) (C-terminal amide; biotin on the side chain of the C-terminal Lys); experiment: equilibrium ELISA and AMMP, monovalent model, Kd and [L]0 fit simultaneously
[2] = biological target: T1, Bim peptide (synthetic 26-residue …); experiment: equilibrium ELISA, monovalent model
Description: (§1) After the capture ligand incubation, 100 μL of sample or standards were added in each well, and incubated for 1 hour at room temperature. Plates were washed, incubated with HRP-conjugated probe antibody (such as anti-HIS tag antibody) in sample buffer for 1 hour, washed, and incubated with TMB substrate (Thermo Scientific). Reactions were stopped after approximately 10 minutes with 2 M sulfuric acid, and the absorbance at 450 nm was measured via a plate reader (Molecular Devices). The ligand of interest, capture ligand, target protein, and probe ligand used in example ELISA assays performed are highlighted in the table below.
(§2) Enzymatic Kd Calculation Assay. The Kd values of ligands of interest were determined using a protocol modified from Friguet et al., Journal of immunological methods, 77, 305-319 (1985). The samples were prepared and analyzed by ELISA assay in a similar process as described above. The OD450 for the standards and their concentration values were fit to a four parameter logistic curve (standard curve). The concentration of the free Bcl-xL in solution (responsible for the signal) for each sample was calculated using the standard curve, and converted into percent of Bcl-xL bound by ligand in solution. For each ligand, the values for all the tested concentration of Bcl-xL and peptide in solution were fit simultaneously to the monovalent equilibrium model below to obtain the dissociation constant Kd (in which [C]EQ, [T]₀, [L]₀ represent the concentration of the target-ligand complex at equilibrium, the initial concentration of the target protein, and the initial concentration of the ligand, respectively).
(§3) The equilibrium assay is a modified version of the method described by Friguet et al., supra. The samples were prepared and analyzed by ELISA assay in a similar process as described above.

[3] = biological target: T1, Bim peptide (synthetic 26-residue …); experiment: equilibrium AMMP, monovalent model
Description: (§4) AMMP Assays. For the AMMP assays, 90 μL of each sample or standards was incubated with 30 μL of magnetic beads (12 μg of beads/mL) and fluorescein-labeled antibody (8 nM) in sample buffer for 1 hour. The experiment's run buffer was 1×PBS+1% (v/v) Tween-20+1% (v/v) heat-treated FBS (Invitrogen; FBS was heat treated for 15 minutes at 65° C. and filtered). BioScale Universal Detection Cartridges were used in performing all of the assays. The device was used per the manufacturer's instructions. The ligand of interest, capture ligand, target protein, and probe ligand used in example AMMP assays performed are highlighted in the table below.
(§5) A competing ligand of unknown Kd was incubated with the target and allowed to equilibrate. The target protein bound to the competing ligand is not anchored to the magnetic beads. Subsequent wash steps thereby […]. The Kd of interaction between the target protein and the competing ligand can then be determined by quantifying the amount of free target in solution.

[4] = biological target: B1; experiment: equilibrium ELISA and AMMP, monovalent model, Kd and [L]0 fit simultaneously
[5] = biological target: B1; experiment: equilibrium ELISA, monovalent model
Description: as §1, §2, §3

[6] = biological target: B1; experiment: equilibrium ELISA/AMMP (value of Table 1 given again)
[7] = biological target: B1; experiment: calculated from the equilibrium Kd and the radiolabeled off-rate
Description: (§6) The Kd for the peptides is measured by the equilibrium ELISA/AAMP assays (Table 1). The off-rate for these peptides was obtained by measuring the dissociation rate for radiolabeled peptide-mRNA fusions bound to immobilized Bcl-xL. The on-rate was calculated based on the equilibrium Kd measurements and the radiolabeled off-rate.

[8] = biological target: B1; experiment: equilibrium AMMP, monovalent model
Description: as §4, §5

[9] = biological target: B1; experiment: equilibrium ELISA and AMMP, monovalent model, known [L]0
[10] = biological target: B1; experiment: binding (equilibrium ELISA) Kd
Description: as §1, with “ELISA Assays. […] Plates were washed 3× with wash buffer (1×PBS+0.1% (v/v) Tween-20) and blocked with 1×PBS+5% (w/v) BSA for two hours. […] After” for “After”
Enzymatic Kd Calculation Assay. The Kd values of ligands of interest were determined using a protocol modified from Friguet et al., Journal of immunological methods, 77, 305-319 (1985). The samples were prepared and analyzed by ELISA assay in a similar process as described above. The OD450 for the standards and their concentration values were fit to a four parameter logistic curve (standard curve). The concentration of the free Bcl-xL in solution (responsible for the signal) for each sample was calculated using the standard curve, and converted into percent of Bcl-xL bound by ligand in solution. […]

[11] = biological target: B1; experiment: dissociation of radiolabeled construct from immobilized Bcl-xL with excess Bcl-xL in solution
Description: (§7) The radiolabeled peptides were allowed to bind to 30 pmol immobilized Bcl-xL for 1 hour in sample buffer (1×PBS, 1% (w/v) BSA, 0.1% (v/v) Tween 20, 10 μM biotin). The beads were magnetically separated, and washed 5× with sample buffer. The beads were resuspended in 1 mL of sample buffer containing 3 μM non-biotinylated Bcl-xL (˜100× molar excess relative to immobilized biotinylated Bcl-xL). At various time points, 100 μL of slurry was removed and the beads were magnetically separated and washed. The percent remaining at each time point was determined by dividing the counts per minute (cpm) on beads by total cpm (beads+washes). The peptide off-rate was determined by an exponential fit of the Percent counts on beads vs. Time (s).
as §6

[12] = biological target: B1; experiment: radiolabeled HA-tagged peptide off-rate from immobilized Bcl-xL
Description: as §7
The peptide ligands were made using a C-terminal HA tag, and affinity purified.

T1 sequence (peptide, as listed by the source): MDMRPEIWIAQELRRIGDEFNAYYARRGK

| Binder | Kd [4] | Kd [5] | Kd [6] | kon [7] | Kd [8] | Kd [9] | koff [11] | further results |
| --- | --- | --- | --- | --- | --- | --- | --- | --- |
| B1 | – | – | – | – | – | – | – | Kd [1]: 0.15 nM; Kd [2]: 0.17 nM; Kd [3]: 0.077 nM |
| MIETITIYKYKKAADHFSMSMGSK(Biotin)-NH2 (N-terminus assumed; SMILES CC[C@H](C)[C@H](NC(=O)[C@@H](NC(=O)[C@@H](NC(=O)[C@@H](NC(=O)[C@H](CCC(=O)O)NC(=O)[C@@H](NC(=O)[C@@H](N)CCSC)[C@@H](C)CC)[C@@H](C)O)[C@@H](C)CC)[C@@H](C)O)C(=O)N[C@@H](Cc1ccc(O)cc1)C(=O)N[C@@H](CCCCN)C(=O)N[C@@H](Cc1ccc(O)cc1)C(=O)N[C@@H](CCCCN)C(=O)N[C@@H](CCCCN)C(=O)N[C@@H](C)C(=O)N[C@@H](C)C(=O)N[C@@H](CC(=O)O)C(=O)N[C@@H](Cc1c[nH]cn1)C(=O)N[C@@H](Cc1ccccc1)C(=O)N[C@@H](CO)C(=O)N[C@@H](CCSC)C(=O)N[C@@H](CO)C(=O)N[C@@H](CCSC)C(=O)NCC(=O)N[C@@H](CO)C(=O)N[C@@H](CCCCNC(=O)CCCC[C@@H]1SC[C@@H]2NC(=O)N[C@@H]21)C(N)=O, Solid phase Fmoc synthesis; also called E2 Pep) [Peptide E2 (synthetic, biotin-labeled)] | 0.24 nM | 0.29 nM | 0.3 nM | 53000 M⁻¹ s⁻¹ | 0.315 nM | 0.3 nM | – | – |
| MIETITIYNYKKAADHFSMSMGSK(Biotin)-NH2 (N-terminus assumed; SMILES CC[C@H](C)[C@H](NC(=O)[C@@H](NC(=O)[C@@H](NC(=O)[C@@H](NC(=O)[C@H](CCC(=O)O)NC(=O)[C@@H](NC(=O)[C@@H](N)CCSC)[C@@H](C)CC)[C@@H](C)O)[C@@H](C)CC)[C@@H](C)O)C(=O)N[C@@H](Cc1ccc(O)cc1)C(=O)N[C@@H](CC(N)=O)C(=O)N[C@@H](Cc1ccc(O)cc1)C(=O)N[C@@H](CCCCN)C(=O)N[C@@H](CCCCN)C(=O)N[C@@H](C)C(=O)N[C@@H](C)C(=O)N[C@@H](CC(=O)O)C(=O)N[C@@H](Cc1c[nH]cn1)C(=O)N[C@@H](Cc1ccccc1)C(=O)N[C@@H](CO)C(=O)N[C@@H](CCSC)C(=O)N[C@@H](CO)C(=O)N[C@@H](CCSC)C(=O)NCC(=O)N[C@@H](CO)C(=O)N[C@@H](CCCCNC(=O)CCCC[C@@H]1SC[C@@H]2NC(=O)N[C@@H]21)C(N)=O, Solid phase Fmoc synthesis; also called E1 Pep) [Peptide E1 (synthetic, biotin-labeled)] | 0.027 nM | 0.034 nM | 0.039 nM | 310000 M⁻¹ s⁻¹ | 0.045 nM | 0.039 nM | – | Kd [10]: 0.039 nM |
| MIAISTIYNYKKAADHYAMTKGSK(Biotin)-NH2 (N-terminus assumed; SMILES CC[C@H](C)[C@H](NC(=O)[C@H](C)NC(=O)[C@@H](NC(=O)[C@@H](N)CCSC)[C@@H](C)CC)C(=O)N[C@@H](CO)C(=O)N[C@H](C(=O)N[C@H](C(=O)N[C@@H](Cc1ccc(O)cc1)C(=O)N[C@@H](CC(N)=O)C(=O)N[C@@H](Cc1ccc(O)cc1)C(=O)N[C@@H](CCCCN)C(=O)N[C@@H](CCCCN)C(=O)N[C@@H](C)C(=O)N[C@@H](C)C(=O)N[C@@H](CC(=O)O)C(=O)N[C@@H](Cc1c[nH]cn1)C(=O)N[C@@H](Cc1ccc(O)cc1)C(=O)N[C@@H](C)C(=O)N[C@@H](CCSC)C(=O)N[C@H](C(=O)N[C@@H](CCCCN)C(=O)NCC(=O)N[C@@H](CO)C(=O)N[C@@H](CCCCNC(=O)CCCC[C@@H]1SC[C@@H]2NC(=O)N[C@@H]21)C(N)=O)[C@@H](C)O)[C@@H](C)CC)[C@@H](C)O, Solid phase Fmoc synthesis; Also the capture ligand of the forward assays for peptide ligands; also called D1 Pep; D1 Peptide) [Peptide D1 (synthetic, biotin-labeled)] | 0.014 nM | 0.007 nM | 0.0085 nM | 240000 M⁻¹ s⁻¹ | 0.012 nM | 0.0085 nM | – | Kd [10]: 0.009 nM |
| MIETITIYKYKKAADHFSMSMGSK (peptide, not shown: small tags and cut ends, also: 35S-labeled methionine, C-terminal extension: Ser-Gly linker and HA tag, or mRNA fusion) [E2, radiolabeled in vitro translated construct used for the off-rate of Table 3] | – | – | – | – | – | – | 1.6e-05 s⁻¹ | – |
| MIETITIYNYKKAADHFSMSM-{Ser‑Gly linker-HA tag} (also: 35S-labeled methionine, not shown: flexible serine-glycine linker, six amino acids long; HA tag) [E1, radiolabeled in vitro translated peptide with C-terminal serine-glycine linker and HA tag] | – | – | – | – | – | – | 1.2e-05 s⁻¹ | koff [12]: 7.4e-06 s⁻¹ |
| MIAISTIYNYKKAADHYAMTK-{Ser‑Gly linker-HA tag} (also: 35S-labeled methionine, not shown: flexible serine-glycine linker, six amino acids long; HA tag) [D1, radiolabeled in vitro translated peptide with C-terminal serine-glycine linker and HA tag] | – | – | – | – | – | – | 2e-06 s⁻¹ | koff [12]: 2e-06 s⁻¹ |
